Measurements from IntAct's records for PubMed 20534433.

B1: Protein RED1 (Saccharomyces cerevisiae), P14291 (parent)
chain: MEGLKKKIFGVCLKNDLAQTRNETKGIHYGLMTLETSKQLQEFLHLLVIKREVIQNFELLFHIINVAVKITDSNLPSDDIWHFILKLRFSSEINIDEDSKVLNYLLETGIAMENPVSWKCLAVISSILSSVPQSKKIITNLIETEHAKKIGQLFDNIQDLQQGNFLVEILSNCFKKSASNSKKVEKIPQLWQSRSKNKFFFENEFYPFSSKNGSLQTCQFLCNNFMSTLSFTGILRQVSYSGSETLKNLRIFKKKDDENSYFIQCIYNKIYLWLDEKAPLEFERKKIRITKNLKNKIQIKLRQPFHECVRTTADKTALLFNKTKGFQLEFEDEKLGETFFHNVNNIPKISEVQNFLVLDYIEEEPENEGEEEEQIGRADEQKEDEEEESLDELSTPMVYPIKSSIPHNHNEKVQLVTPDRSVSIRSDEWDLKSNTEDEEGNVLADLKISSTKETKRQTDYVHIDSEDQSPVVSAQMRKMRRESTKTLEILRQEFKDKDVQNKEDQSEQIQNPFVNTSSLVVGKSCLVNPKEKPNIDQTVVGITELKSNSSIKKRDINILDTIFGQPPSKKQKQFHKKEKKKQQKKLTNFKPIIDVPSQDKRNLRSNAPTKPKSIKVSKLRTDKKVTGEKSSPETAAEKVDDQTVRSNDEQAMSRATKEKCFPDVNEGKEITKDDAKVSLESKKNNETFVDSSVVEKHTPPDKDCNNCNITDILESTTVIDLQSPHGLSAPGQNTFTNKLQEQIYSSINHFSNELVRKISIINQELNKKILKELSEKYQKLFSELQDNFQNDTNEMLKFMGEIKDMMNLPEDQLVHAIRTRKFDNNKR
partner: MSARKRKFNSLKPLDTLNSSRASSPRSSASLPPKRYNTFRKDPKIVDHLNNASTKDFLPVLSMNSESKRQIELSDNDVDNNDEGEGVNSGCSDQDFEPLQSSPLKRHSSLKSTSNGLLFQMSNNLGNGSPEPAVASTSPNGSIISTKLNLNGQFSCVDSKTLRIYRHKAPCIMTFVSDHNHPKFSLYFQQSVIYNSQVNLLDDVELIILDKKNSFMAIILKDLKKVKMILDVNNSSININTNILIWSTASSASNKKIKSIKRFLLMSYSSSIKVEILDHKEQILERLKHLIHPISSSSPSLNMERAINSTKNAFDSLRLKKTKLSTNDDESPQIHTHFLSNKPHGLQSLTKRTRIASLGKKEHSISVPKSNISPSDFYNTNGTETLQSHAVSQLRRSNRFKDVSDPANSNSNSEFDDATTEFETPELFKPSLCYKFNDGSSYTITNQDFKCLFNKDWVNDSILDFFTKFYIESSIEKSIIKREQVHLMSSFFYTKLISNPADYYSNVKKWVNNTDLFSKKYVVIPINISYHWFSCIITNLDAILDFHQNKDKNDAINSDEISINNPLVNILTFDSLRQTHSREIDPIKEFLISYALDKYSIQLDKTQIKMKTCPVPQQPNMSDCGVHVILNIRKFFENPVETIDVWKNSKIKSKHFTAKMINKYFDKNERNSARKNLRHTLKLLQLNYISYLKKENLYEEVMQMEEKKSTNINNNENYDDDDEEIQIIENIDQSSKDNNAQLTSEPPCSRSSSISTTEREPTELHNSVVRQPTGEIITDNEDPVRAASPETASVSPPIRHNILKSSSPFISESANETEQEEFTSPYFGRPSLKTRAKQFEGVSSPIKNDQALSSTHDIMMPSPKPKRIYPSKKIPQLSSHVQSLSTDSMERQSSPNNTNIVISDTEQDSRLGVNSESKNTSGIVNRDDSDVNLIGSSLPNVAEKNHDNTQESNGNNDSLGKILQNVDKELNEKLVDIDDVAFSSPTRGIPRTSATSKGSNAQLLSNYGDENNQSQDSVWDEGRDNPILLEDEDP
B2: Protein RED1 (Saccharomyces cerevisiae), P14291 (parent)
chain: B1 chain
B3: Protein RED1 (Saccharomyces cerevisiae), P14291 (parent)
chain: B1 chain
partner: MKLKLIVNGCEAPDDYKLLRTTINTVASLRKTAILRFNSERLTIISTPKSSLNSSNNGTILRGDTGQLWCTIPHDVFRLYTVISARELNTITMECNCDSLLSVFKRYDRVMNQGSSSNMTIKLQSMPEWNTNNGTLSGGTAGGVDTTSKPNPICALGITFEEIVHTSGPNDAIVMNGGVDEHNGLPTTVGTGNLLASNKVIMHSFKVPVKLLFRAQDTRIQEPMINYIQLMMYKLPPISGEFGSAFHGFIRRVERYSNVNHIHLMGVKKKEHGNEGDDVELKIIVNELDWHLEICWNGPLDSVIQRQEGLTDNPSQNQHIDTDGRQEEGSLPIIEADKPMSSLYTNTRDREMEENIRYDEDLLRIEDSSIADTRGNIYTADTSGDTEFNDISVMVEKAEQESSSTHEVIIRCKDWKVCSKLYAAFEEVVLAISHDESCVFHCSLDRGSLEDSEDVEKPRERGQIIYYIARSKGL
B4: Protein RED1 (Saccharomyces cerevisiae), P14291 (parent)
chain: B1 chain
partner: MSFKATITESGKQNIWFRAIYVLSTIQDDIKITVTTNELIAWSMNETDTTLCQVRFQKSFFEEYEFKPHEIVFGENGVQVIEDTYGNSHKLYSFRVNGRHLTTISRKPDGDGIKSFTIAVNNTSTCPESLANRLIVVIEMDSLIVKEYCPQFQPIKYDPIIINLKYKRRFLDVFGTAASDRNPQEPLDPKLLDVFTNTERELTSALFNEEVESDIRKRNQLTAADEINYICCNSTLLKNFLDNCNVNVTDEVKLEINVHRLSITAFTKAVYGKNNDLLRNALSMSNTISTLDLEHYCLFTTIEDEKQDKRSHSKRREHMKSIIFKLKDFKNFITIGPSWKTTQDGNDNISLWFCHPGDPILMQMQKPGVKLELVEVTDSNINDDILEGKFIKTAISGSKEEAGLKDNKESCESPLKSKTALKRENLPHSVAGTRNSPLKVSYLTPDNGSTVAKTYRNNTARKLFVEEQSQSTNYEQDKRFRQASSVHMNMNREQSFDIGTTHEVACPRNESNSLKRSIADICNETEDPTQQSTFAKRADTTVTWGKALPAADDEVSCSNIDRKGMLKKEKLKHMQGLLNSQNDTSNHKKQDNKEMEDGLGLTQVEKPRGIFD
B5: Protein RED1 (Saccharomyces cerevisiae), P14291 (parent)
chain: B1 chain
partner: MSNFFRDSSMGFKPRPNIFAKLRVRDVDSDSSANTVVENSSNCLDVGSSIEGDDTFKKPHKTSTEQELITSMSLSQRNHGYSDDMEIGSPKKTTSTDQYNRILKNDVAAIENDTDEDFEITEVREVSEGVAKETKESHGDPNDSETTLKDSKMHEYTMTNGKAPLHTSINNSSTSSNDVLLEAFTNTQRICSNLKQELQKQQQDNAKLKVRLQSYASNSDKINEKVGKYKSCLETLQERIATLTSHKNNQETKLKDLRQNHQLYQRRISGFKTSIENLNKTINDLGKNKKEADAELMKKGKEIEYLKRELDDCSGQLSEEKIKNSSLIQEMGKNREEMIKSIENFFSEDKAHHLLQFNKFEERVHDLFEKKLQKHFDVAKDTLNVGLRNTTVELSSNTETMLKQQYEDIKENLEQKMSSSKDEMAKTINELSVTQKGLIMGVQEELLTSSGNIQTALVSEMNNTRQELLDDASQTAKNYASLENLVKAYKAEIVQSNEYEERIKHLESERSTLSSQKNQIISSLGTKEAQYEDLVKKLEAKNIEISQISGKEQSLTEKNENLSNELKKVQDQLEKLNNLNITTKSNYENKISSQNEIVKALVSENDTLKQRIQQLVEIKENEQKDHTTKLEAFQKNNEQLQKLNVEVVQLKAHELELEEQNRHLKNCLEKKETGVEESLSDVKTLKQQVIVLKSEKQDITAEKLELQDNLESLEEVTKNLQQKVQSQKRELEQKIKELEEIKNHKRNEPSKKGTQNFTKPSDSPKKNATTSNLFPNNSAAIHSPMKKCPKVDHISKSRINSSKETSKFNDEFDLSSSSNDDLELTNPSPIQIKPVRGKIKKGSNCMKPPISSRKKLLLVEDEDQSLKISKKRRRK

Variants of: B1
Settings: with ulp2_yeast ULP2, P40537

Row | Variant | effect of a mutation on the interaction
1 | K569R;K570R;K572R;K576R;K577R;K579R;K580R;K581R;K584R;K585R;K590R | disrupting interaction strength

Variants of: B2
Settings: with smt3_yeast SMT3, Q12306
Chain of smt3_yeast SMT3, Q12306 (Q12306 whole entry): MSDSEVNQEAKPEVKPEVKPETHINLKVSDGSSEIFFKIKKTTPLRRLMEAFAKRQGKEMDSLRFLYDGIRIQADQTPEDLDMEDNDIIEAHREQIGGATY

Row | Variant | effect of a mutation on the interaction
2 | K569R;K570R;K572R;K576R;K577R;K579R;K580R;K581R;K584R;K585R;K590R | disrupting interaction strength
3 | K569R;K570R;K572R;K576R;K577R | disrupting interaction strength

Variants of: B3
Settings: with mec3_yeast MEC3, Q02574

Row | Variant | effect of a mutation on the interaction
4 | Q537A;V540A | disrupting interaction strength

Variants of: B4
Settings: with ddc1_yeast DDC1, Q08949

Row | Variant | effect of a mutation on the interaction
5 | I743A | disrupting interaction strength

Variants of: B5
Settings: with zip1_yeast ZIP1, P31111

Row | Variant | effect of a mutation on the interaction
6 | K569R;K570R;K572R;K576R;K577R;K579R;K580R;K581R;K584R;K585R;K590R | disrupting interaction strength
